In US20240124560A1:

Tests used:
full-length MPER peptide = assay: ELISA on peptide MPER (654-683), antibody titrated
4E10-specific peptide = assay: ELISA on peptide MPER (671-683), antibody titrated
[1] = molecular target: HIV-1 Env of pseudovirus NIH-040_Ce703010054 2A2 (HIV-1); assay: cell-based or functional assay
[2] = molecular target: HIV-1 Env of NIH-034_Ce0393 C3 (HIV-1); assay: cell-based or functional assay
[3] = molecular target: HIV-1 Env of NIH-047_Ce704809221 1B3 (HIV-1); assay: cell-based or functional assay
[4] = molecular target: HIV-1 Env of isolate NIH-098_89.F1 2 25 (HIV-1); assay: cell-based or functional assay
[5] = molecular target: HIV-1 Env of NIH-064_0260.v5.c1 (HIV-1); assay: cell-based or functional assay
[6] = molecular target: HIV-1 Env of NAC_92TH021 (HIV-1); assay: cell-based or functional assay
[7] = molecular target: HIV-1 Env of NIH-104_3103.v3.c10 (HIV-1); assay: cell-based or functional assay
[8] = molecular target: HIV-1 Env of pseudovirus NIH-079_BJOX010000.06.2 (HIV-1); assay: cell-based or functional assay
[9] = molecular target: HIV-1 Env of pseudovirus NIH-015_62357.14.D3.4589 (HIV-1); assay: cell-based or functional assay
[10] = molecular target: HIV-1 Env of pseudovirus NIH-118_T255.34 (HIV-1); assay: cell-based or functional assay
[11] = molecular target: HIV-1 Env of pseudovirus NIH-025_ZM109F.PB4 (HIV-1); assay: cell-based or functional assay
[12] = molecular target: HIV-1 Env of NAC_HxB2 (HIV-1) (UniProt P04578); assay: cell-based or functional assay
[13] = molecular target: HIV-1 Env of pseudovirus NIH-016_SC05.8C11.2344 (HIV-1); assay: cell-based or functional assay
[14] = molecular target: HIV-1 Env of isolate NIH-083_P0402 c2 11 (HIV-1); assay: cell-based or functional assay
[15] = molecular target: HIV-1 Env of pseudovirus NIH-045_7030102001E5(Rev.) (HIV-1); assay: cell-based or functional assay
[16] = molecular target: HIV-2 C1 chimera Env (HIV-2 (HIV-1 MPER) chimera); assay: cell-based or functional assay
[17] = molecular target: HIV-1 Env of pseudovirus NIH-108_T235.47 (HIV-1); assay: cell-based or functional assay
[18] = molecular target: HIV-1 Env of NIH-016_SC05.8C11.2344 (HIV-1); assay: cell-based or functional assay
[19] = molecular target: HIV-1 Env of pseudovirus NIH-044_ZM247F.F7 (HIV-1); assay: cell-based or functional assay
[20] = molecular target: HIV-2 C3 chimera Env (HIV-2 (HIV-1 MPER) chimera); assay: cell-based or functional assay
[21] = molecular target: HIV-1 Env of NAC_YU2 (HIV-1) (UniProt P35961); assay: cell-based or functional assay
[22] = molecular target: HIV-1 Env of NIH-005_TRO.11 (HIV-1); assay: cell-based or functional assay
[23] = molecular target: HIV-1 Du156.12 Env (HIV-1 Du156.12); assay: cell-based or functional assay
[24] = molecular target: HIV-1 Env of isolate COT6, mutant D674E (HIV-1); assay: cell-based or functional assay
[25] = molecular target: HIV-1 Env of NIH-006_AC10.0.29 (HIV-1); assay: cell-based or functional assay
[26] = molecular target: HIV-1 Env of pseudovirus NIH-101_6540.v4.c1 (HIV-1); assay: cell-based or functional assay
[27] = molecular target: HIV-1 Env of pseudovirus NIH-054_CNE53 (HIV-1); assay: cell-based or functional assay
[28] = molecular target: HIV-1 Env of NAC_TRJO.58 (HIV-1); assay: cell-based or functional assay
[29] = molecular target: HIV-1 Env of pseudovirus NIH-011_1056.10.TA11.1826 (HIV-1); assay: cell-based or functional assay
[30] = molecular target: HIV-1 Env of isolate COT6, mutant D674T (HIV-1); assay: cell-based or functional assay
[31] = molecular target: HIV-1 Env of pseudovirus NIH-004_PVO.4 (HIV-1); assay: cell-based or functional assay
[32] = molecular target: HIV-1 Env of NIH-077_BJOX009000.02.4 (HIV-1); assay: cell-based or functional assay
[33] = molecular target: HIV-1 Env of pseudovirus NIH-057_MS208.A1 (HIV-1); assay: cell-based or functional assay
[34] = molecular target: HIV-2 Env (parental virus of the chimeras) (HIV-2); assay: cell-based or functional assay
[35] = molecular target: HIV-1 Env of pseudovirus NIH-050_CNE21 (HIV-1); assay: cell-based or functional assay
[36] = molecular target: HIV-1 Env of pseudovirus NAC_KNH1144 (HIV-1); assay: cell-based or functional assay
[37] = molecular target: HIV-1 Env of isolate NIH-085_X2088 c9 (HIV-1); assay: cell-based or functional assay
[38] = molecular target: HIV-1 Env of NIH-102_6545.v4.c1 (HIV-1); assay: cell-based or functional assay
[39] = molecular target: HIV-1 Env of pseudovirus NIH-068_620345.c01 (HIV-1); assay: cell-based or functional assay
[40] = molecular target: HIV-1 Env of isolate COT6 (wild-type) (HIV-1); assay: cell-based or functional assay
[41] = molecular target: HIV-1 Env of isolate COT6, mutant D674S (HIV-1); assay: cell-based or functional assay
[42] = molecular target: HIV-2 C4 chimera Env (HIV-2 (HIV-1 MPER) chimera); assay: cell-based or functional assay
[43] = molecular target: HIV-1 Env of isolate Du156.12 (HIV-1); assay: cell-based or functional assay

## 4E10 (antibody)
full-length MPER peptide
  EC50 (read off the curve): 0.03 µg/mL
4E10-specific peptide
  EC50 (read off the curve): 0.02 µg/mL
[1]
  neutralization IC50: 2.05 µg/mL
[2]
  IC80 neutralization: 2.56 µg/mL
[3]
  IC80 neutralization: 0.557 µg/mL
[4]
  IC80 (µg/ml), TZM-bl pseudovirus neutralization: 21.7 µg/mL
[5]
  IC80 neutralization: 6.08 µg/mL
[6]
  IC80 neutralization: 1.38 µg/mL
[7]
  IC80 neutralization: 32.4 µg/mL
[8]
  neutralization IC50: 0.438 µg/mL
[9]
  neutralization IC50: 2.87 µg/mL
[10]
  neutralization IC50: 0.326 µg/mL
[11]
  neutralization IC50: 0.703 µg/mL
[12]
  IC80 neutralization: 0.089 µg/mL
[13]
  neutralization IC50: 0.828 µg/mL
[14]
  IC80 (µg/ml), TZM-bl pseudovirus neutralization: 0.363 µg/mL
[15]
  neutralization IC50: 3.41 µg/mL
[16]
  IC50 (µg/ml), neutralization of chimeric virus: 0.8 µg/mL
[17]
  neutralization IC50: 0.248 µg/mL
[18]
  IC80 neutralization: 3.44 µg/mL
[19]
  neutralization IC50: 1.85 µg/mL
[20]
  IC50 (µg/ml), neutralization of chimeric virus: > 10 µg/mL
[21]
  IC80 neutralization: > 50 µg/mL
[22]
  IC80 neutralization: 3.08 µg/mL
[23]
  IC50 (µg/ml), neutralization of HIV-1 Du156.12: 0.101 µg/mL
[24]
  Fold increase in IC50 relative to wild-type COT6: 10 fold
[25]
  IC80 neutralization: 2.73 µg/mL
[26]
  neutralization IC50: 5.63 µg/mL
[27]
  neutralization IC50: 0.38 µg/mL
[28]
  IC80 neutralization: 11.6 µg/mL
[29]
  neutralization IC50: 0.688 µg/mL
[30]
  Fold increase in IC50 relative to wild-type COT6: 25 fold
[31]
  neutralization IC50: 9.59 µg/mL
[32]
  IC80 neutralization: 1.62 µg/mL
[33]
  neutralization IC50: 0.678 µg/mL
[34]
  IC50 (µg/ml), neutralization of HIV-2: > 10 µg/mL
[35]
  neutralization IC50: 0.513 µg/mL
[36]
  neutralization IC50: 11.5 µg/mL
[37]
  IC80 (µg/ml), TZM-bl pseudovirus neutralization: > 50 µg/mL
[38]
  IC80 neutralization: 13.3 µg/mL
[39]
  neutralization IC50: 0.663 µg/mL
[40]
  Fold increase in IC50 (wild-type COT6, the reference): 1 fold
[41]
  Fold increase in IC50 relative to wild-type COT6: 1.65 fold
[42]
  IC50 (µg/ml), neutralization of chimeric virus: 1.41 µg/mL

## PGZL1 (antibody)
full-length MPER peptide
  EC50 (read off the curve): 0.02 µg/mL
4E10-specific peptide
  EC50 (read off the curve): 0.02 µg/mL
[1]
  neutralization IC50: 48.9 µg/mL
[2]
  IC80 neutralization: > 50 µg/mL
[3]
  IC80 neutralization: 3.1 µg/mL
[4]
  IC80 (µg/ml), TZM-bl pseudovirus neutralization: > 50 µg/mL
[5]
  IC80 neutralization: > 50 µg/mL
[6]
  IC80 neutralization: 8.27 µg/mL
[7]
  IC80 neutralization: > 50 µg/mL
[8]
  neutralization IC50: 1.66 µg/mL
[9]
  neutralization IC50: 27.2 µg/mL
[10]
  neutralization IC50: 3.35 µg/mL
[11]
  neutralization IC50: 7.36 µg/mL
[12]
  IC80 neutralization: 0.485 µg/mL
[13]
  neutralization IC50: 5.77 µg/mL
[14]
  IC80 (µg/ml), TZM-bl pseudovirus neutralization: 32.3 µg/mL
[15]
  neutralization IC50: 49.6 µg/mL
[17]
  neutralization IC50: 1.54 µg/mL
[18]
  IC80 neutralization: 24.6 µg/mL
[21]
  IC80 neutralization: > 50 µg/mL
[22]
  IC80 neutralization: 11.8 µg/mL
[25]
  IC80 neutralization: 18.8 µg/mL
[26]
  neutralization IC50: > 50 µg/mL
[27]
  neutralization IC50: 6 µg/mL
[28]
  IC80 neutralization: > 50 µg/mL
[29]
  neutralization IC50: 3.72 µg/mL
[31]
  neutralization IC50: 49 µg/mL
[32]
  IC80 neutralization: 15.8 µg/mL
[33]
  neutralization IC50: 10.1 µg/mL
[35]
  neutralization IC50: 4.23 µg/mL
[36]
  neutralization IC50: > 50 µg/mL
[37]
  IC80 (µg/ml), TZM-bl pseudovirus neutralization: > 50 µg/mL
[38]
  IC80 neutralization: > 50 µg/mL
[39]
  neutralization IC50: 12.6 µg/mL

## VRC01 (antibody)
[1]
  neutralization IC50: 0.139 µg/mL
[2]
  IC80 neutralization: 1.46 µg/mL
[3]
  IC80 neutralization: 1.28 µg/mL
[4]
  IC80 (µg/ml), TZM-bl pseudovirus neutralization: > 50 µg/mL
[5]
  IC80 neutralization: 0.516 µg/mL
[6]
  IC80 neutralization: 1.31 µg/mL
[7]
  IC80 neutralization: 6.21 µg/mL
[8]
  neutralization IC50: 1.77 µg/mL
[9]
  neutralization IC50: 1.74 µg/mL
[10]
  neutralization IC50: 0.229 µg/mL
[11]
  neutralization IC50: 0.074 µg/mL
[12]
  IC80 neutralization: 0.081 µg/mL
[13]
  neutralization IC50: 0.508 µg/mL
[14]
  IC80 (µg/ml), TZM-bl pseudovirus neutralization: 0.164 µg/mL
[15]
  neutralization IC50: 0.38 µg/mL
[17]
  neutralization IC50: 0.021 µg/mL
[18]
  IC80 neutralization: 1.98 µg/mL
[19]
  neutralization IC50: 0.236 µg/mL
[21]
  IC80 neutralization: 0.69 µg/mL
[43]
  Fold change (IC50 wash)/(IC50 no wash): 1.5 fold
  IC50 (µg/ml), no wash: 0.11 µg/mL
  IC50 (µg/ml), wash: 0.16 µg/mL
[22]
  IC80 neutralization: 0.912 µg/mL
[24]
  Fold increase in IC50 relative to wild-type COT6: 1.2 fold
[25]
  IC80 neutralization: 3.52 µg/mL
[26]
  neutralization IC50: > 50 µg/mL
[27]
  neutralization IC50: 0.042 µg/mL
[28]
  IC80 neutralization: 0.223 µg/mL
[29]
  neutralization IC50: 0.372 µg/mL
[30]
  Fold increase in IC50 relative to wild-type COT6: 1 fold
[31]
  neutralization IC50: 0.192 µg/mL
[32]
  IC80 neutralization: 2.34 µg/mL
[33]
  neutralization IC50: 0.063 µg/mL
[35]
  neutralization IC50: 0.212 µg/mL
[36]
  neutralization IC50: 0.134 µg/mL
[37]
  IC80 (µg/ml), TZM-bl pseudovirus neutralization: > 50 µg/mL
[38]
  IC80 neutralization: > 50 µg/mL
[39]
  neutralization IC50: > 50 µg/mL
[40]
  Fold increase in IC50 (wild-type COT6, the reference): 1 fold
